One substance from PMC9333307 can be followed below.

The experiment addresses Urtica dioica agglutinin (Urtica dioica (stinging nettle)). The experiment is described as follows: ELISA; microwells coated with serial dilutions (1:2 to 1:16) of UDA in PBS at 4°C overnight; blocked with 0.3% skim milk; 0.5 μg.mL recombinant RBD added for 1 h at RT; detected with rabbit anti-his antibodies and HRP-conjugated secondary antibody, TMB, absorbance at 450 nm; wells without UDA as negative control. The arrangement: unit not given here. (An ELISA detects its analyte on a solid surface through an enzyme-linked reagent.)

On to “recombinant receptor-binding domain (RBD) of SARS-CoV-2 Spike protein (from UniProt P0DTC2 319-541) (domain or fragment)”, for which the absorbance at 450 nm is 420.
